The source of these data is paper PMC7613929 (Nature microbiology, 2022).

Sequences and labels used below:
B1: E. coli FtsN cytoplasmic tail peptide, residues 1-32 (EcFtsN^1-32) [E. coli] / E. coli FtsA (EcFtsA), full length [E. coli] (parent complex)
chain 1: MAQRDYVRRSQPAPSRRKKSTSRKKQRNLPAV
chain 2: MIKATDRKLVVGLEIGTAKVAALVGEVLPDGMVNIIGVGSCPSRGMDKGGVNDLESVVKCVQRAIDQAELMADCQISSVYLALSGKHISCQNEIGMVPISEEEVTQEDVENVVHTAKSVRVRDEHRVLHVIPQEYAIDYQEGIKNPVGLSGVRMQAKVHLITCHNDMAKNIVKAVERCGLKVDQLIFAGLASSYSVLTEDERELGVCVVDIGGGTMDIAVYTGGALRHTKVIPYAGNVVTSDIAYAFGTPPSDAEAIKVRHGCALGSIVGKDESVEVPSVGGRPPRSLQRQTLAEVIEPRYTELLNLVNEEILQLQEKLRQQGVKHHLAAGIVLTGGAAQIEGLAACAQRVFHTQVRIGAPLNITGLTDYAQEPYYSTAVGLLHYGKESHLNGEAEVEKRVTASVGSWIKRLNSWLRKEF

In the assay the parent is B1. In words: SPR; FtsA immobilised on CM5 chip via amide coupling; peptide 1:2 dilution series from 20 μM; maximum response fixed during fitting (asterisk). In general terms: In SPR one partner is held on a chip, and binding of the other changes the refractive index at the surface.
Turning to chain 1 R16A, chain 1 R17A, chain 1 K18S, chain 1 K19A, the dissociation constant Kd was around 166 µM.
Turning to chain 1 R23A, chain 1 K24S, chain 1 K25A, the Kd was around 80.6 µM.

What is called Kd is the free concentration of one partner at which half of the binding sites on the other are occupied at equilibrium, for simple one-to-one binding.
